{
  "source": "paper PMC2815668",
  "about": "“Pseudo-merohedral twinning and noncrystallographic symmetry in orthorhombic crystals of SIVmac239 Nef core domain bound to different-length TCRζ fragments” (Acta Crystallographica Section D: Biological Crystallography, 2010)",
  "target": "T1, SIVmac239 Nef core domain, GS-Nef (Asp95–Ser235) (simian immunodeficiency virus, isolate …, UniProt P31818 95-235)",
  "T1 construct": "source: E. coli BL21 (DE3), purified (Ni-NTA under 8 M urea, dialysis, thrombin cleavage, anion exchange, SEC)",
  "T1 sequence": "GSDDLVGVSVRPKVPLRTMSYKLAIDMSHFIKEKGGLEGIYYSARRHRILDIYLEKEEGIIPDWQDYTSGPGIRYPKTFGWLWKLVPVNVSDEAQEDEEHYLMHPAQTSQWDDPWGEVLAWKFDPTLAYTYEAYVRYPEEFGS",
  "experiment": "not stated; unpublished results; stoichiometry of the complex",
  "details": "both partners purified",
  "data": [
    {"binder": "LRVKFSRSADAPAYQQGQNQLYNELNLGRREEYDVLDKRRGRD (domain or fragment, also called longer TCRζ polypeptide; source: acid cleavage of purified TCRζcyt (30% acetonitrile, 0.5% TFA, 48 h, 323 K), isolated by reverse-phase chromatography)", "note": "[TCRζDP1 (Leu51–Asp93), N-terminal acid-cleavage fragment of the TCRζ cytoplasmic domain]", "values": [
      {"measurement": "stoichiometry N", "value": 1}
    ]}
  ]
}
